Results from US20170224833A1, “SELF-ASSEMBLING MOLECULES THAT ACCUMULATE IN ACIDIC TUMOR MICROENVIRONMENTS” (OHIO STATE INNOVATION FOUNDATION, priority 2014, published 2017).
Values belong to the molecule of their own block, whether it stands above or below them. Residues, ends and D or L forms follow the SMILES beside them. *: point of attachment. Palmitoyl = CCCCCCCCCCCCCCCC(=O)*

Experiments:
[1] = Critical aggregation concentration (CAC), pyrene 1:3 method; format: physicochemical
Protocol: For the CAC measurements, a series of solutions of the PA with concentrations ranging from 10 nM to 300 μM were prepared using serial dilutions in 150 mM NaCl and 2.2 mM CaCl2. The final concentration of pyrene in each solution was fixed to be 1.23 μM. This was followed by pH adjustment of the solutions using careful additions of HCl or NaOH. 70 μL of each solution was transferred to a 96-well plate and the fluorescence emission of pyrene was monitored using a hybrid reader fluorimeter (BioTek Synergy H4) at room temperature. The excitation wavelength was set at 335 nm. The ratio of the intensities of emissions at 376 nm and 392 nm were then plotted as a function of the PA concentration (log scale). The CAC was determined from an abrupt change in the slope of the plot using the least-squares fitting technique.
For CAC measurements, a series of solutions of either pure PA or PA mixture with concentrations ranging from 100-300 nM to 500-700 μM were prepared using serial dilutions in 150 mM NaCl and 2.2 mM CaCl2 (and 1.8 mM 20 kDa PEG in select samples). The final concentration of pyrene in each solution was fixed to be 4.5 μM. This was followed by pH adjustment of the solutions using careful additions of HCl or NaOH. 100 µL of each solution was transferred to a 96-well plate and the fluorescence emission of pyrene was monitored using a hybrid reader fluorimeter (BioTek Synergy H4) at room temperature. The excitation wavelength was set at 335 nm. The ratio of the intensities of emissions at 376 nm and 392 nm were then plotted as a function of the PA concentration (log scale). The CAC was determined from an abrupt change in the slope of the plot using the least-squares fitting technique.
The pyrene 1:3 method was used to determine CAC for the PAs (Aguiar, J., et al. J. Colloid Interface Sci. 2003 258:116-122). For both PA71 and PA68, CAC measurements were performed at various pH values (5-10). Samples of high PA concentration (300-750 μM) were prepared in deionized water containing 150 mM NaCl and 2.2 mM CaCl2. These samples were raised to 9 or greater pH using NaOH and heated at 80° C. for 30 minutes. Samples were then allowed to cool to room temperature and pH was altered to the desired value using dilute NaOH and HCl. Solutions containing only aqueous 150 mM NaCl and 2.2 mM CaCl2 and solutions containing these salts, a 1:1 solution of water and methanol, and 62 μM pyrene were also prepared. Each of these solutions was divided into various portions and adjusted to appropriate pH values. The PA solutions were serially diluted with the corresponding salt solutions with a total of 125 μL at each concentration. 5 μL of the pyrene containing solution as added to each dilution for a final pyrene concentration of 2.4 μM. Each diluted sample was probed for fluorescence with an excitation wavelength of 335 nm. Fluorescence was recorded with particular attention paid to the 376 nm and 392 nm emission peaks. The ratio of these two peaks was plotted versus PA concentration on a log scale. The CAC was determined from an abrupt change in the slope of the plot using the least-squares fitting technique.
Critical aggregation concentration (CAC) measurements were carried out to determine the concentration at which micelles or nanofibers begin to form by using the pyrene 1:3 method, (citation) All samples were basified to a pH of 10, stirred at 90° C. for 30 minutes in an oil bath and cooled to room temperature. HCl and NaOH were then added to set the PA solution specific pH value. PAs with concentrations ranging from 100 μM to 500 μM were serial diluted with 150 mM NaCl and 2.2 mM CaCl2. A pyrene solution was then added to each of the diluted samples, for a final pyrene concentration of 4.5 μM. 100 μL of each serial diluted sample were transferred into a 96-well plate and the fluorescence emission of the pyrene was monitored by a hybrid reader fluorimeter (BioTek Synergy H4) at room temperature with an excitation wavelength of 335 nm. […]

[2] = pH titration of peptide amphiphiles (pKa); format: physicochemical; details: 10 μM
Protocol: The titration measurements were conducted on 10 μM peptide amphiphile solutions prepared in 150 mM NaCl and 2.2 mM CaCl2 using milli-Q water. The solution was heated at 80° C. for 30 minutes followed by slow cooling at room temperature. The pH of the solution was then adjusted to 4 using HCl. Finally, an Accumet XL15 pH meter (Fisher Scientific) coupled with an Orion Ross Ultra semi-micro electrode (8103BNUWP, Thermo Scientific) was used to track changes in pH of the solution as NaOH solution was added in small increments. pKa values were obtained from the second inflection points of the first derivative plots of the titration data. The first transition corresponds to neutralization of excess HCl. The calculated pKas reflect the average pKa for all four glutamic acids.

[3] = CD spectroscopy in artificial mouse serum (150 mM NaCl, 2.2 mM CaCl2, 1.8 mM 20 kDa PEG); format: physicochemical; details: both pure and artificial mouse serum
Protocol: Measurements were done on a Jasco-815 Circular Dichroism spectrometer using 0.5-1 cm path length quartz cuvettes. 500-10 μM of either pure PA or PA mixtures were prepared in 150 mM NaCl and 2.2 mM CaCl2 (and 1.8 mM 20 kDa PEG in select samples) by dilution from a concentrated PA stock (0.5-1 mM, pH 9). Double de-ionized Milli-Q water was used for preparing all solutions. The solutions were then heated at 80° C. for 30 minutes in a water bath and gradually cooled to room temperature. An Accumet XL15 pH meter (Fisher Scientific) coupled with an Orion Ross Ultra semi-micro electrode (8103BNUWP, Thermo Scientific) was used to adjust the pH of the solution to the desired value followed by collection of the CD spectra. Each trace shown was averaged over 3 accumulations and was baseline subtracted using aqueous solutions containing salts only. All spectra are cut-off below 200 nm due to absorption by NaCl and CaCl2. The same procedure was followed for the salt control samples with 3.0 and 4.0 mM CaCl2.
Finally, a medium that accurately replicated the ionic strength and the crowded environment of pure serum and enabled characterization of the PA self assembly behavior using CD and CAC measurements without interference from protein signals was created. This artificial serum solution contains 1.8 mM of 20 kDa PEG, 150 mM NaCl and 2.2 mM CaCl2. […]

[4] = 150 mM NaCl, 2.2 mM CaCl2; previously found (Ghosh 2012); cited from earlier work
[5] = pH 5, 150 mM NaCl, 2.2 mM CaCl2

- critical aggregation concentration (CAC) ([1]; pH 6.6): 6.0 µM
- glutamic acids in the deprotonated form at the transition [2]: 98.8%
Molecule: CCCCCCCCCCCCCCCC(=O)N[C@H](C(=O)N[C@@H](C)C(=O)N[C@@H](C)C(=O)N[C@@H](C)C(=O)N[C@@H](CCC(=O)O)C(=O)N[C@@H](CCC(=O)O)C(=O)N[C@@H](CCC(=O)O)C(=O)N[C@@H](CCC(=O)O)C(N)=O)[C@@H](C)CC [PA1] (Palmitoyl-IAAAEEEE-NH2)

Molecule: Palmitoyl-IAAAEEEEK(DO3A:Gd)-NH2 (Palmitoyl-IAAAEEEEK(DO3A)-NH2; also: DO3A chelates Gd) [PA5]
- morphology across pH [3]: remains nanofibers across all measured pH values
- pH of concentration independent transition from spherical micelles to nanofibers [4]: 6.0

Molecule: Palmitoyl-AAAIEEEE-NH2 (SMILES CCCCCCCCCCCCCCCC(=O)N[C@@H](C)C(=O)N[C@@H](C)C(=O)N[C@@H](C)C(=O)N[C@H](C(=O)N[C@@H](CCC(=O)O)C(=O)N[C@@H](CCC(=O)O)C(=O)N[C@@H](CCC(=O)O)C(=O)N[C@@H](CCC(=O)O)C(N)=O)[C@@H](C)CC) [PA70]
- aggregation state by pyrene 1:3 method ([1]; all pH and concentration values): in the aggregated state across all pH and concentration values

Molecule: palmitoyl-YYAAEEEEEK(DO3A:Gd)-NH2 (Palmitoyl-YYAAEEEEEK(DO3A)-NH2; also: DO3A chelates Gd) [PA74]
- CAC higher than PA75 ([1]; pH 6): ~500%
- CAC ([1]; pH 7.06): 9.3 µM
- CAC higher than PA75 ([1]; pH 8): 5%
- CAC ([1]; pH 9.02): 21.6 µM

Molecule: Palmitoyl-AIAAEEEEK(DO3A:Gd)-NH2 (Palmitoyl-AIAAEEEEK(DO3A)-NH2; also: DO3A chelates Gd) [PA71]
- CAC (below the detectable limit) ([1]; all pH values tested except pH 10): 200 to 300 nM
- CAC [1, 5]: 1.3 µM
- CAC, fold lower than PA5 ([1]; pH ~7): > 6

- CAC, times lower than PA1 ([1]; comparable pH values): 3-5
- CAC [1, 5]: 1.1 µM
- CAC ([1]; pH 10, 150 mM NaCl, 2.2 mM CaCl2): 7.5 µM
Molecule: CCCCCCCCCCCCCCCC(=O)N[C@@H](C)C(=O)N[C@H](C(=O)N[C@@H](C)C(=O)N[C@@H](C)C(=O)N[C@@H](CCC(=O)O)C(=O)N[C@@H](CCC(=O)O)C(=O)N[C@@H](CCC(=O)O)C(=O)N[C@@H](CCC(=O)O)C(N)=O)[C@@H](C)CC [PA68] (Palmitoyl-AIAAEEEE-NH2)
